Assay [1] deals with SLX1 endogenous in Xenopus egg extract (Xenopus laevis (endogenous in Xenopus egg extract)) (UniProt Q0IH86). Put plainly: co-depletion by immunodepletion.
The target of assay [2] is SLX4 endogenous in Xenopus egg extract (Xenopus laevis (endogenous in Xenopus egg extract)). Put plainly: co-depletion by immunodepletion.

Chain of UniProt Q0IH86 (Q0IH86 whole entry): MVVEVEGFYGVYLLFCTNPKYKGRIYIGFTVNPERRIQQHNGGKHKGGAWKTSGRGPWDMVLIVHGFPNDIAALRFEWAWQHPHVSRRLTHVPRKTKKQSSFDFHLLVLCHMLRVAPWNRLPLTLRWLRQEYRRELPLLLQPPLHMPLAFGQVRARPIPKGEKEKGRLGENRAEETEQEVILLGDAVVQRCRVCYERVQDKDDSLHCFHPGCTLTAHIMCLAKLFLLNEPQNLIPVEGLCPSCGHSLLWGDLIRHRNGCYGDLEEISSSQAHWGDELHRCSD

With “SLX4 endogenous in Xenopus egg extract (natural protein)”, the percent co-depleted in assay [1] turned out to be 90%.

For “XPF-ERCC1 endogenous in Xenopus egg extract (complex)”, the percent co-depleted in assay [2] and in assay [1] was 50% in each case.
